From patent US20220372098A1 (Johns Hopkins, published 2022)
Changes are numbered by the printed parent chain. In names and notes the source's numbering stands.

Experiments:
[1] = target: T1, biotinylated human IL-2 with C-terminal biotin acceptor peptide (human, UniProt P60568 21-153, biotinylated with BirA ligase on the C-terminal biotin acceptor peptide); test: bio-layer interferometry (Octet), equilibrium titration on immobilized hIL-2
T1 construct: Immobilized on streptavidin tips in BLI and used as the soluble labelled ligand in the yeast display assays; also called biotinylated hIL-2; immobilized hIL-2

[2] = target: T1, biotinylated human IL-2 with C-terminal …; test: flow cytometry competition: soluble IL-2Rα titrated against 5 nM biotinylated IL-2; competitor is the yeast-displayed F10 scFv
[3] = target: T1, biotinylated human IL-2 with C-terminal …; test: flow cytometry competition: soluble IL-2Rα titrated against 10 nM biotinylated IL-2; competitor is the yeast-displayed 602 scFv
[4] = target: T1, biotinylated human IL-2 with C-terminal …; test: flow cytometry on yeast displaying the scFv, 5 nM soluble biotinylated IL-2 co-incubated with soluble IL-2Rα
Protocol: (§1) Cells were then washed and stained with a 1:200 dilution of AlexaFluor 647-complexed streptavidin (Thermo Fisher Scientific) in PBSA for 15 minutes at 4° C. After a final wash, cells were analyzed for target binding using a CytoFLEX flow cytometer (Beckman Coulter). Background-subtracted and normalized binding curves were fitted to a first-order binding model and equilibrium dissociation constant (KD) values were determined using GraphPad Prism software.

[5] = target: T1, biotinylated human IL-2 with C-terminal …; test: flow cytometry, titration of soluble biotinylated IL-2 on yeast displaying the scFv, streptavidin-AF647 detection
Protocol: as §1

B1: recombinant 602 antibody (anti-human IL-2), mouse IgG2a kappa (antibody, V domains shown)
VH: EVQLQESGPGLVAPSQSLSITCTVSGFSLTNYDISWIRQPPGKGLEWLGVIWTGGGTNYNSGFMSRLSITKDNSKSQVFLKMNSLQTDDTAIYYCVRQGRTPYWGQGTLVTVSA
VL: DIQVTQSPSSLSVSLGDRVTITCKASKDIYNRLAWYQQKPGNAPRLLISGATSLETGVPSRFSGSGSGKDYTLTITSLQTEDVATYYCQQFWGTPYTFGGGTKLEIKR
notes: They are built here from the component entries so that the signal peptides are left out; also called MAB602
A Kd [1] of 3.5 nM was found for B1 in this work.

B2: human IL-2Rα extracellular domain, soluble, with C-terminal hexahistidine tag (receptor)
chain: ELCDDDPPEIPHATFKAMAYKEGTMLNCECKRGFRRIKSGSLYMLCTGNSSHSSWDNQCQCTSSATRNTTKQVTPQPEEQKERKTTEMQSPMQPVDQASLPGHCREPPPWENEATERIYHFVVGQMVYYQCVQGYRALHRGPAESVCKMTHGKTRWTQPQLICTGEMETSQFPGEEKPQASPEGRPESETSCLVTTTDFQIQTEMAATMETSIFTTEYQHHHHHH
notes: extracellular domain; also called soluble IL-2Rα
In the case of B2, the “IC50 (read off the curve)” value [2] is reported as ~300 nM and the “IC50 (read off the curve)” value [3] is reported as ~60 nM.

B3: yeast-displayed F10 single-chain variable fragment (variant of the 602 scFv) (scFv)
scFv: EVQLQESGPGLVAPSQSLSITCTVSGFSLTNYDISWIRQPPGKGLEWLGVIWTGGGTNYNSGFMSRLSITKDNSKSQVFLKMNSLQTDDTAIYYCVRQGRSPYWGQGTLVTVSAGGGGSGGGGSGGGGSDIQVTQSPSSLSVSLGDRVTITCKASKDIYNRLAWYQQKPGNAPRLLISGATSLETGVPSRFSGSGSGKDYTLTITSLQTEDVATYYCQQSWDTPYTFGGGTKLEIK
notes: also called F10 scFv; evolved F10 scFv; not shown: N-terminal Aga2, (G4S)3 linker, 3C and factor Xa cleavage sites; C-terminal c-Myc tag
B3: binds [4].

B4: yeast-displayed 602 single-chain variable fragment (VH-(G4S)3-VL, fused to Aga2) (scFv)
scFv: B3 scFv with S101T, S220F, D222G
notes: not shown: N-terminal Aga2, (G4S)3 linker, 3C and factor Xa cleavage sites; C-terminal c-Myc tag
For B4, the “EC50 (read off the curve)” value [5] was ~10 nM.
